Measured values taken from the Immune Epitope Database (IEDB).

What was measured:
Conditions in all cases: source organism: Cryptosporidium parvum Iowa II
HLA-A*66:01 = assay: IEDB peptide-MHC binding, purified MHC/competitive/fluorescence; filed as Kd, often an IC50 or EC50 that approximates it; ≥ and ≤ were set here for values at or beyond the usual limits of such assays
HLA-B*27:05 = assay: as above
HLA-A*30:01 = assay: as above
HLA-B*40:01 = assay: as above
HLA-B*51:01 = assay: as above
HLA-B*14:02 = assay: as above
HLA-A*30:02 = assay: as above
HLA-B*58:01 = assay: as above
HLA-B*44:02 = assay: as above
HLA-B*07:02 = assay: as above
HLA-A*11:01 = assay: as above
HLA-B*08:01 = assay: as above
HLA-B*53:01 = assay: as above
HLA-A*01:01 = assay: as above
HLA-A*02:12 = assay: IEDB peptide-MHC binding, purified MHC/direct/fluorescence; filed as Kd, often an IC50 or EC50 that approximates it; ≥ and ≤ were set here for values at or beyond the usual limits of such assays
HLA-A*68:02 = assay: as above
HLA-A*02:01 = assay: as above
HLA-A*02:16 = assay: as above
HLA-A*23:01 = assay: as above
HLA-A*02:19 = assay: as above
HLA-A*26:01 = assay: as above
HLA-B*15:17 = assay: as above
HLA-B*46:01 = assay: as above
HLA-B*39:01 = assay: as above
HLA-B*15:01 = assay: as above

In the case of TVFRNQNRV, the Kd (HLA-A*66:01) is reported as at least 5 µM, the Kd (HLA-B*27:05) is reported as at least 5 µM and the Kd (HLA-A*30:01) is reported as at least 5 µM. It also gave a Kd (HLA-B*40:01) of at least 5 µM, a Kd (HLA-B*51:01) of at least 5 µM and a Kd (HLA-B*14:02) of at least 5 µM. It also gave a Kd (HLA-A*30:02) of at least 5 µM, a Kd (HLA-B*58:01) of at least 5 µM and a Kd (HLA-B*44:02) of at least 5 µM. It also gave a Kd (HLA-B*07:02) of at least 5 µM, a Kd (HLA-A*11:01) of at least 5 µM and a Kd (HLA-B*08:01) of at least 5 µM. For the same sequence, the Kd (HLA-B*53:01) was at least 5 µM, the Kd (HLA-A*01:01) was at least 5 µM and the Kd (HLA-A*02:12) was at least 20 µM. The Kd (HLA-A*68:02) was at most 1 nM, the Kd (HLA-A*02:01) was at least 20 µM and the Kd (HLA-A*02:16) was at least 20 µM. It also gave a Kd (HLA-A*23:01) of at least 20 µM, a Kd (HLA-A*02:19) of at least 20 µM and a Kd (HLA-A*26:01) of at least 20 µM. For the same sequence, the Kd (HLA-B*15:17) was at least 20 µM, the Kd (HLA-B*46:01) was at least 20 µM and the Kd (HLA-B*39:01) was at least 20 µM. It also gave a Kd (HLA-B*15:01) of at least 20 µM.
